Measurements: PMC12098869, “An mRNA-display derived cyclic peptide scaffold reveals the substrate binding interactions of an N-terminal cysteine oxidase” (Nature Communications, 2025)
Several values for one entry are separate records, joined by “and”; a condition that tells them apart may be missing. Identical values can stand only once.

How the values were obtained:
Assay in all cases: SPR; biotinylated ADO or ADO mutant immobilised on a Biotin CAP chip (~2500-3000 RU), substrate peptide injected; Biacore T200, 4 °C; 20 mM HEPES pH 7.5, 500 mM NaCl, 10 mM DTT, 0.1% tween-20; 50 µL/minute; multi-cycle or single-cycle mode not given; each cell is one of three independent measurements
Details in all cases: both partners purified
[1] = molecular target: T1, ADO-Y87A, N-terminally His-tagged and biotinylated (human, UniProt Q96SZ5 1-270, Y87A, biotin (biotinylated during expression))
T1 construct: 2-aminoethanethiol dioxygenase (ADO), human, UniProt Q96SZ5, full length, site-directed mutant; source: E. coli Rosetta2(DE3), purified (Ni-NTA, SEC); not shown: biotinylation tag (from the vector pQE80L-Navi), N-terminal, kept
T1 sequence (looked up): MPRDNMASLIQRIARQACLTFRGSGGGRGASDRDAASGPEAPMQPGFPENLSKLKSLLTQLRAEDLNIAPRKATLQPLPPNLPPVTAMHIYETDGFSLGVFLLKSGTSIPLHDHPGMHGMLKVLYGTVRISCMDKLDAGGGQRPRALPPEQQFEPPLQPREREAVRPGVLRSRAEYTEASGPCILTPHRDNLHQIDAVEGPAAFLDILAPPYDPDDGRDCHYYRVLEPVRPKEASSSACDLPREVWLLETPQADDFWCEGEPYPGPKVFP

[2] = molecular target: T2, ADO-Y87F, N-terminally His-tagged and biotinylated (human, UniProt Q96SZ5 1-270, Y87F, biotin (biotinylated during expression))
T2 construct: 2-aminoethanethiol dioxygenase (ADO), human, UniProt Q96SZ5, full length, site-directed mutant; source: E. coli Rosetta2(DE3), purified (Ni-NTA, SEC); not shown: biotinylation tag (from the vector pQE80L-Navi), N-terminal, kept
T2 sequence (looked up): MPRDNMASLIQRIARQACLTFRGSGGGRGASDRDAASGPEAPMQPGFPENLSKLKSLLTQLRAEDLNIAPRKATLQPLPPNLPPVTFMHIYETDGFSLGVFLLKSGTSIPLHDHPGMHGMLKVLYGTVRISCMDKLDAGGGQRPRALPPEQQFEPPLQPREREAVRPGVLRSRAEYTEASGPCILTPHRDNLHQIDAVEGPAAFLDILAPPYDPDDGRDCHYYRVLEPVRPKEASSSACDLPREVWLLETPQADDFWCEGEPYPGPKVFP

[3] = molecular target: T3, ADO-F101A, N-terminally His-tagged and biotinylated (human, UniProt Q96SZ5 1-270, F101A, biotin (biotinylated during expression))
T3 construct: 2-aminoethanethiol dioxygenase (ADO), human, UniProt Q96SZ5, full length, site-directed mutant; source: E. coli Rosetta2(DE3), purified (Ni-NTA, SEC); not shown: biotinylation tag (from the vector pQE80L-Navi), N-terminal, kept
T3 sequence (looked up): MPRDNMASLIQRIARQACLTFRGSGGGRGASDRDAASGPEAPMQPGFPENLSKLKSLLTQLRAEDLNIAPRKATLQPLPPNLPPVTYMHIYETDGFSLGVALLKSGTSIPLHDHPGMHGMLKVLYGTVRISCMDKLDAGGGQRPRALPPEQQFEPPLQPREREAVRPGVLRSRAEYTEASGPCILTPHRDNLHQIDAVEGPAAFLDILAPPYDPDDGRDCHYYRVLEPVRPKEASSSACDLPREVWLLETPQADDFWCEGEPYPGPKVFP

[4] = molecular target: T4, ADO-I109A, N-terminally His-tagged and biotinylated (human, UniProt Q96SZ5 1-270, I109A, biotin (biotinylated during expression))
T4 construct: 2-aminoethanethiol dioxygenase (ADO), human, UniProt Q96SZ5, full length, site-directed mutant; source: E. coli Rosetta2(DE3), purified (Ni-NTA, SEC); not shown: biotinylation tag (from the vector pQE80L-Navi), N-terminal, kept
T4 sequence (looked up): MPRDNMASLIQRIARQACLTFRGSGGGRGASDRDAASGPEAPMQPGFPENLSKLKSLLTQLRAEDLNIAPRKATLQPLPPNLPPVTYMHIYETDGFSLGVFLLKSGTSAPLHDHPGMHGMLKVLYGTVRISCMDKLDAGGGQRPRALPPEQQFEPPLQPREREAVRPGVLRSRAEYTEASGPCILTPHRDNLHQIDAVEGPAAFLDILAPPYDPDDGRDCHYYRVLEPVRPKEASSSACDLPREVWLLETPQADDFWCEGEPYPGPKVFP

[5] = molecular target: T5, ADO-C220A, N-terminally His-tagged and biotinylated (human, UniProt Q96SZ5 1-270, C220A, biotin (biotinylated during expression))
T5 construct: 2-aminoethanethiol dioxygenase (ADO), human, UniProt Q96SZ5, full length, site-directed mutant; source: E. coli Rosetta2(DE3), purified (Ni-NTA, SEC); not shown: biotinylation tag (from the vector pQE80L-Navi), N-terminal, kept
T5 sequence (looked up): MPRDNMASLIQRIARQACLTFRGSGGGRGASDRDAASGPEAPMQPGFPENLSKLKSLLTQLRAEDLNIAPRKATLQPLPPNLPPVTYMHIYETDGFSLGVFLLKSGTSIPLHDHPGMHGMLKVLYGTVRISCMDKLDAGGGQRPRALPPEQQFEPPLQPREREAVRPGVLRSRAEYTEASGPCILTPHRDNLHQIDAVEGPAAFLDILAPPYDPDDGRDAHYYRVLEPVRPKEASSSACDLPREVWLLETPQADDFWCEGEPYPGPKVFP

Kd [1]: 4.57 µM and 3.79 µM and 4.17 µM | Kd [2]: 0.303 µM and 0.327 µM and 0.329 µM | Kd [3]: 37.9 µM and 35 µM and 37.6 µM | Kd [4]: 14.2 µM and 15.1 µM and 18.4 µM | Kd [5]: 1.44 µM and 1.18 µM and 1.43 µM
B1: IL32(2-15), synthetic peptide corresponding to the methionine excised N-terminus of IL32, residues 2-15 (peptide, UniProt P24001 2-15, looked up)
peptide: CFPKVLSDDMKKLK
notes: interleukin 32 (IL32), residues 2-15 (N-terminal Cys exposed); also called 14-mer IL32; source: synthetic peptide
